The test deals with T1, neuropilin-1 on MDA-MB-231 tumor cells (UniProt O14786 22-923, limits assumed).
T1 construct: whole, on cells
The test is described as follows: Binding of VEGF to MDA-MB-231 cells with or without Aβ peptides (data not shown).

B1: Vascular endothelial growth factor VEGF165 (ligand)
chain: APMAEGGGQNHHEVVKFMDVYQRSYCHPIETLVDIFQEYPDEIEYIFKPSCVPLMRCGGCCNDEGLECVPTEESNITMQIMRIKPHQGQHIGEMSFLQHNKCECRPKKDRARQENPCGPCSERRKHLFVQDPQTCKCSCKNTDSRCKARQLELNERTCRCDKPRR
modifications: 125I label in the radioligand, co-aggregation, dissociation and trapping assays (position not given)
notes: 125I-VEGF was bought from Amersham; also called 125I-VEGF; 125I-VEGF165
As to B1, the binding result is given as “binds”.

(Values after US20080293922A1 (POSCO, published 2008).)
